Results on one molecule are retold here after patent US20090202437A1 (UMC UTRECHT HOLDING B V, published 2009).

The target of the experiment is T1, recombinant human MASP-2 (consisting of the two complement control regions and the serine protease domain) (human, UniProt O00187 298-686).
T1 construct: domain: the two complement control regions and the serine protease domains; also called rMASP-2; MBL associated serine protease-2
The experiment can be described thus: size-exclusion chromatography (Superose-6) of 125I-labelled rLPI incubated with rMASP-2.

T1 sequence (O00187 298-686 limits assumed): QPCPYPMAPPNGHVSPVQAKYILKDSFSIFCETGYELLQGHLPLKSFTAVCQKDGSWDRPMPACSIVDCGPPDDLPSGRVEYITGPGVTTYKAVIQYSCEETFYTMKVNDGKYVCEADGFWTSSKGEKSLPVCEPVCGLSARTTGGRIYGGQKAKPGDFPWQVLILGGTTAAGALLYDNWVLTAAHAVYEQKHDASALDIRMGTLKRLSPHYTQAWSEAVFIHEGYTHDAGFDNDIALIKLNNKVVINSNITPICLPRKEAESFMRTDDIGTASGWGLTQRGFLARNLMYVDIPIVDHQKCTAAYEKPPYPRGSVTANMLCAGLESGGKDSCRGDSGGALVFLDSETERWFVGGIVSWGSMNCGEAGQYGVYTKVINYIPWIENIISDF

B1: recombinant LPI (Lectin Pathway Inhibitor) of Staphylococcus aureus (other)
chain: STSLPTSNEYQNEKLANELKSLLDELNVNELATGSLNTYYKRTIKISGQKAMYALKSKDFKKMSEAKYQLQKIYNEIDEALKSKY
notes: also called rLPI; 125I-LPI
In the case of B1, the binding result is reported as “binds”.
